Km data for 1 protein are collected here from paper doi:10.1101/089938v2.

The Km is the substrate concentration at which the rate is half of its maximum.

Substrate in data set [1]: C[C@@H](N)C(=O)O
The experiment in a line: racemization assay, HPLC of derivatized L- and D-Ala. As to conditions: D- to L-Ala direction. It is filed as biochemical, Streptomyces coelicolor.

Substrate in data set [2]: C[C@H](N)C(=O)O
The data set is described as above. It is filed as biochemical, Streptomyces coelicolor. The conditions noted are these: L- to D-Ala direction.

B1: AlrSco (alanine racemase from Streptomyces coelicolor A3(2), SCO4745) (Streptomyces coelicolor A3(2)) (protein)
chain: MSETTARRDADAVLRARAEIDLAALRANVRALRERAPGAALMAVVKADAYGHGAIPCARAAVAAGATWLGTATPQEALALRAAEPGLPDDVRIMCWLWTPGGPWREAVEARLDVSVSAMWAMEEVTGAARAAGVPARVQLKADTGLGRGGCQPGADWERLVGAALRAEEEGLLRVTGLWSHFACADEPGHPSIAAQLTRFREMTAYAEQRGLRPEVRHIANSPATLTLPDAHFDLVRPGIAMYGVSPSPEIGTPADFGLRPVMTLAASLALVKQVPGGHGVSYGHHYTTPGETTLGLVPLGYADGIPRHASSSGPVLVDGKWRTVAGRIAMDQFVVDLGGDRPEPGAEAVLFGPGDRGEPTAEDWAQAAGTIAYEIVTRIGSRVPRVYVNE
For the protein B1, the results for the Km in data set [1] and in data set [2] were 8.9 mM and 6.3 mM, respectively.
